For one molecule, sedimentation coefficient (s20,w) of the YFP-Hsp90/PPH-5 complex in presence of the peptide results are on record in patent publication EP2878677A1, “Activators of protein phosphatase 5” (Deutsches Zentrum für Neurodegenerative Erkrankungen e.V. …, priority 2013, dated 2015).

This assay deals with PPH-5 (C. elegans protein phosphatase 5) (C. elegans). Nature of the assay: competition in sedimentation velocity AUC; 60 uM peptide, 300 nM YFP-Hsp90, 3 uM PPH-5; the peptide competes with YFP-Hsp90.

With AEEDASRMEEVD [C-terminal Hsp90/DAF-21 peptide (…)], the sedimentation coefficient (s20,w) of the YFP-Hsp90/PPH-5 complex in presence of the peptide is 7.6 S.
